Data reported in patent publication US12522635B2, “Amyloid peptide variants” (Loyola Marymount University, priority 2019, dated 2026).
Where no end group is shown, it is not given here.

Legend:
human IAPP (hIAPP) [1] = biological target: T1, human IAPP (hIAPP) (Homo sapiens, UniProt P10997); test: Thioflavin T binding assay of hIAPP aggregation when mixed with IAPP peptides; assay type: biochemical; details: for inhibition of hIAPP aggregation (summary statement): peptide mixed with hIAPP, no single assay (thioflavin T and AFM); for inhibition of hIAPP aggregation, thioflavin T binding: hIAPP mixed with peptide, incubated at 37° C. with shaking
T1 construct: This 37 amino acid polypeptide is co-secreted from pancreatic β-islet cells with insulin
T1 sequence (P10997 34-70 limits assumed): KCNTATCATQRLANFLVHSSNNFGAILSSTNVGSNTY
Source text: Any of a number of assays known to the art can be used to evaluate the ability of IAPP peptides to inhibit hIAPP aggregation and/or protect cells from hIAPP toxicity. Thioflavin T (ThT) binding is one such technique for identifying amyloid formation in real time. Human IAPP is known to bind thioflavin T during aggregation and amyloid formation, and upon binding to amyloid fibrils ThT will give a strong fluorescence signal at approximately 482 nm when excited at 450 nm. ThT fluorescence correlates linearly with amyloid concentration in a sample and therefore can be used to determine the amount of aggregation in a sample. This technique can therefore be used for identifying substances with amyloid-inhibiting potential when such substances are mixed with human IAPP under conditions known to result in the formation of aggregates by hIAPP. Determining the extent of aggregation can also be determined using other techniques, such as Atomic Force Microscopy (AFM), which can provide information about particle dimensions, shape, and substructure with nanometer resolution. In the foregoing assays and others that can be used by one of skill in the art, significant inhibition can be determined using a t-test by measuring the difference between hIAPP and hIAPP combined with an IAPP peptide.
To identify IAPP peptides having inhibitory potential against hIAPP aggregation, the peptides shown in FIG. 1 from a number of species (cow, degu, guinea pig, horse, pig, rat, and sheep[…]) were mixed with hIAPP at a 2:1 molar ratio of animal peptide to hIAPP and incubated under conditions known to promote hIAPP aggregation and fibril formation. IAPP alone, or hIAPP mixed with an animal IAPP, was pipetted into a glass tube and the HFIP was removed under speed-vacuum. The resulting peptide sample was dissolved in 20 mM Tris buffer pH 7.4.
37 μM human IAPP was mixed with 75 μM of each indicated animal IAPP. Aggregation was initiated by incubating samples at 37° C. with shaking at 200 rpm for 40 minutes. At indicated time points, a 17 μL aliquot of each sample was mixed with 663 μL of 50.0 μM thioflavin T in 20 mM Tris buffer (pH 7.4). Thioflavin T fluorescence emission was then recorded at 488 nm using a Hitachi F-7000 fluorescence spectrophotometer.
After 40 minutes, these samples were monitored for their ability to bind thioflavin T (see FIG. 2) and their ability to form fibrils as identified with atomic force microscopy.
Human IAPP (37 μM) was mixed with each of the indicated Weddell seal variants (at 75 μM) and incubated for 30 minutes at 37° C. with shaking at 200 rpm. The Weddell seal IAPP peptides were likewise subjected to atomic force microscopy as described in Example 2.
Human IAPP was mixed with each of the indicated raccoon variants and incubated at 37° C. with shaking.
Human IAPP was mixed with each of the indicated chicken variants and incubated at 37° C. with shaking. […] However, it was able to protect cells in MTT assays, so it is believed to inhibit formation of toxic oligomers while having a lesser effect on inhibiting the formation of fibers (which are less toxic and less able to bind ThT).
Human IAPP was mixed with each of the indicated chicken variants and incubated at 37° C. with shaking.

RIN-m cells = test: MTT viability assay, peptide alone or mixed with hIAPP; assay type: cell-based; details: hIAPP mixed with peptide 1:1, MTT assay
Source text: Cytoprotection can likewise be measured by a number of assays known to the art. One such assay is the MTT assay, which is a colorimetric assay for assessing cell metabolic activity. NAD(P)H-dependent cellular oxidoreductase enzymes in the cytosolic compartment of a cell reduces the tetrazolium dye MTT 3-(4,5-dimethylthiazol-2-yl)-2,5-diphenyltetrazolium bromide to an insoluble form, formazan, which has a purple color. The reduction of MTT (and other tetrazolium dyes) depends on the cellular metabolic activity, so a loss of color in the course of performing an MTT assay indicates low metabolic activity, and is thus an indicator of cell damage and death.
To test cell viability, a MTT colorimetric assay measuring the conversion of yellow tetrazolium salt into purple formazan crystal catalyzed by a mitochondrial reductase was used. Cell viability studies were performed using RIN-m cells (ATCC, CRL-2057). An equal number of RIN-m cells were plated in triplicate and incubated overnight in 96-well plates. The next day, fresh RPMI-1640 with phenol red supplemented with 10% FBS was added to cells. Hexafluoroisopropanol (HFIP) was removed from each individual human and animal IAPP using a centrivap concentrator (LabOnco). All IAPP peptide samples were re-suspended in RPMI-1640 with 10% FBS. To ensure even re-suspension, each resulting IAPP-containing vial was scraped with a pipette tip six times and vortexed (Vortex Genie Mixer) for 15 seconds. The whole process, from drying each IAPP peptide to adding each IAPP peptide to the cells was uniform to ensure that each sample was incubated for an equal amount of time with each IAPP peptide. IAPP peptides were added to cells and incubated for 46 hours at 37° C. Post-incubation, the media in each well was replaced by fresh DMEM/F-12 without phenol red. MTT (3-(4,5-dimethyl-2-thiazolyl)-2,5-diphenyl-tetrazolium bromide) was added into each well and incubated at 37° C. for 2 hours. Formazan crystals, formed on the bottom of the wells, were re-suspended in solubilization buffer (20% SDS and 50% dimethylformamide). The absorbance in each well was taken at 570 nm using a Multiskan FC Microplate Photometer (Thermos Fisher Scientific). Media were obtained from ATCC. All incubations took place in a water jacketed incubator in 5% carbon dioxide at 37° C. (Shell Lab).
The MTT viability assay was used to measure cell viability of RIN-m cells upon addition of hIAPP alone, the addition of each animal IAPP peptide alone, and hIAPP mixed with each animal IAPP peptide (results shown in FIG. 5). RIN-m cells alone were used as a control and set to 100% cell viability. […] Addition of raccoon IAPP to hIAPP increased the cell viability from 55% to an average of 72% (p=0.005705). Addition of chicken IAPP variant to hIAPP increased cell viability to an average of 76% (p=0.013556).

human IAPP (hIAPP) [2] = biological target: T1, human IAPP (hIAPP); test: Atomic force microscopy (AFM) of hIAPP fibril formation when mixed with IAPP peptides; assay type: biochemical; details: 37 μM hIAPP and 75 μM peptide, 37° C. with shaking for 40 minutes
Procedure: Samples labeled with hIAPP contained 40 μM hIAPP. The sample with pramlintide and hIAPP contained a 2:1 molar mixture (80 μM Pramlintide mixed with 40 μM hIAPP). The samples with raccoon IAPP and Pramlintide alone contained 40 μM of the indicated peptides. Each sample was incubated for 40 minutes at 37° C. with shaking; conditions known to promote hIAPP amyloid formation. All scans show raw data with no flattening and are […].
Each sample contained 37 μM hIAPP and 75 μM of the indicated peptide. Samples were incubated at 37° C. with shaking for 40 minutes. All scans show raw data with no flattening and are […].
Each sample contained 37 μM hIAPP mixed with 37 μM of the indicated peptide. Samples were incubated at 37° C. with shaking for 30 minutes before depositing each sample onto freshly cleaved mica.
Samples of hIAPP with or without animal IAPP were prepared as described in Example 1 and were then incubated with shaking at 37° C. for 40 minutes. After this incubation, 17 μL of each sample was deposited onto freshly cleaved mica. Samples were incubated for 5 minutes at room temperature before washing with 200 μL sterile water. After drying, the samples were scanned using an MFP-3D atomic force microscope (Asylum Research) set on A/C mode and a 240 m silicon cantilever (Olympus).
Many of the animal IAPP variants are known to likewise form fibrils and yield amyloid-plaques when scanned via AFM. […] This is in spite of the fact that all of these IAPP peptides (except polar bear IAPP) are known to aggregate and form fibrils themselves under these or similar conditions

| Substance | inhibition of hIAPP aggregation (summary statement) (human IAPP (hIAPP) [1]) | rescue / protection of cells from hIAPP toxicity (words) (RIN-m cells) | inhibition of hIAPP aggregation, thioflavin T binding (human IAPP (hIAPP) [1]) | inhibition of hIAPP fibril formation, AFM (human IAPP (hIAPP) [2]) |
| --- | --- | --- | --- | --- |
| SEQ ID NO:23: raccoon IAPP peptide with amino acids removed from the N-terminal end (ATQRLANFLLRSSNNLGAILSPTNVGSNTY; Procyon lotor truncation) | failed to inhibit aggregation of hIAPP or reduce its cytotoxicity | failed to inhibit aggregation of hIAPP or reduce its cytotoxicity |  |  |
| KCNTATCATQRLANFLLRSSNNLGAILSPTNVGSNTY (Procyon lotor mutation) [Rac_V8A] |  |  | inhibited hIAPP aggregation |  |
| KCNTATCVTQRLADFLLRSSSNIGAIYSPTNVGSNTY (Gallus gallus mutation) [Ch_V16L] |  | rescued cells from hIAPP-induced cytotoxicity | inhibited hIAPP aggregation |  |
| KCNTATCATQRLANFLVRSSNNFGAILSPTNVGSNTY (KTATCATQRLANFLVHSSNNLGAILSPTNVGSNTY; Leptonychotes weddellii mutation) [WS_RP] |  | rescued cells from hIAPP toxicity |  |  |
| R8-30: truncated raccoon IAPP peptide of FIG. 19; sequence not printed in the text (VTQRLANFLLRSSNNLGAILSPT) |  |  |  | did not inhibit hIAPP aggregation |
| KCNTATCVTQRLANFLLRSSNNIGAILSPTNVGSNTY (Procyon lotor mutation) [Rac_L22I] |  |  | inhibited hIAPP aggregation |  |
| R8-23: truncated raccoon IAPP peptide of FIG. 19; sequence not printed in the text (VTQRLANFLLRSSNNL) |  |  |  | did not inhibit hIAPP aggregation |
| SEQ ID NO:21: raccoon IAPP peptide with amino acids removed from the N-terminal end (FLLRSSNNLGAILSPTNVGSNTY; Procyon lotor truncation) | failed to inhibit aggregation of hIAPP or reduce its cytotoxicity | failed to inhibit aggregation of hIAPP or reduce its cytotoxicity |  |  |
| KCNTATCVTQRLANFLVRSSNNLGAILSPTNVGSNTY (Procyon lotor mutation) [Rac_L16V] |  |  | inhibited hIAPP aggregation |  |
| KCNTATCVTQRLADFLVRSSSNIGAILSPTNVGSNTY (Gallus gallus mutation) [Ch_Y26L] |  | rescued cells from hIAPP-induced cytotoxicity | inhibited hIAPP aggregation |  |
| SEQ ID NO:25: raccoon IAPP peptide with amino acids removed from the middle (VTQRLANFLLRSSNNL; Procyon lotor truncation) | failed to inhibit aggregation of hIAPP or reduce its cytotoxicity | failed to inhibit aggregation of hIAPP or reduce its cytotoxicity |  |  |
| SEQ ID NO:22: raccoon IAPP peptide with amino acids removed from the middle (FLLRSSNNLGAILSPTN; Procyon lotor truncation) | failed to inhibit aggregation of hIAPP or reduce its cytotoxicity | failed to inhibit aggregation of hIAPP or reduce its cytotoxicity |  |  |
| SEQ ID NO:24: raccoon IAPP peptide with amino acids removed from the middle (VTQRLANFLLRSSNNLGAILSPT; Procyon lotor truncation) | failed to inhibit aggregation of hIAPP or reduce its cytotoxicity | failed to inhibit aggregation of hIAPP or reduce its cytotoxicity |  |  |
| KCNTATCVTQRLANFLLRSSNNLGAILSPT (ends and bridges not checked; cysteine pairing not given here) [R1-30] |  | rescued cells from hIAPP-induced cytotoxicity | inhibited hIAPP aggregation |  |
| R1-23: truncated raccoon IAPP peptide of FIG. 19; sequence not printed in the text (KCNTATCVTQRLANFLLRSSNNL) |  |  |  | did not inhibit hIAPP aggregation |
| KCNTATCVTQRLADFLLRSSNNLGAILSPTNVGSNTY (Procyon lotor mutation) [Rac_N13D] |  |  | inhibited hIAPP aggregation |  |
